Source: paper PMC6424611

What was measured:
[1] = biological target: biotinylated RSK1 725-735 peptide, phosphorylated at Ser732 (position -3) (human) (UniProt Q15418); experiment: holdup assay
[2] = biological target: biotinylated RSK1 725-735 peptide, unphosphorylated (human) (UniProt Q15418); experiment: holdup assay
[3] = biological target: biotinylated RSK1 725-735 peptide, phosphorylated at Ser732 (position -3) (human) (UniProt Q15418); experiment: SPR
[4] = biological target: biotinylated RSK1 725-735 peptide, unphosphorylated (human) (UniProt Q15418); experiment: SPR
[5] = biological target: Scribble PDZ1 (Homo sapiens) (UniProt Q14160); experiment: holdup assay; conditions: cited from earlier work
Scribble PDZ1 (Homo sapiens), sequence (Q14160 725-818): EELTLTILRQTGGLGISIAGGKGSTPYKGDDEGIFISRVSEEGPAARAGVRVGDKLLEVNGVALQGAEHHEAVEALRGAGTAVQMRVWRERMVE

[6] = biological target: MBP-fused PDZ domain of SYNJ2BP (human) (UniProt P57105); experiment: fluorescence polarisation
MBP-fused PDZ domain of SYNJ2BP (human), sequence (P57105 13-100): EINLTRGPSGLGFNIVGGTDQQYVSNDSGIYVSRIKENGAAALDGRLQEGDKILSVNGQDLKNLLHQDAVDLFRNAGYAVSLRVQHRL

[7] = biological target: MBP-fused PDZ domain 1 of PDZRN3 (human) (UniProt Q9UPQ7); experiment: fluorescence polarisation
MBP-fused PDZ domain 1 of PDZRN3 (human), sequence (Q9UPQ7 249-339): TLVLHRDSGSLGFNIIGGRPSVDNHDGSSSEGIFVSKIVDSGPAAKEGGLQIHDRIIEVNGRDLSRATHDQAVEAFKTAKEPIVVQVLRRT

[8] = biological target: MBP-fused PDZ domain of GOPC (human) (UniProt Q9HD26); experiment: fluorescence polarisation
[9] = biological target: MBP-fused PDZ domain of ARHGEF12 (human) (UniProt Q9NZN5); experiment: fluorescence polarisation
MBP-fused PDZ domain of ARHGEF12 (human), sequence (Q9NZN5 72-151): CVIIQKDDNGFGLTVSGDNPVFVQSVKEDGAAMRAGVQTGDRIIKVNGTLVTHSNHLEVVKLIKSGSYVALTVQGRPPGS

HPV16 E6 PBM, sequence (P03126 whole entry, looked up): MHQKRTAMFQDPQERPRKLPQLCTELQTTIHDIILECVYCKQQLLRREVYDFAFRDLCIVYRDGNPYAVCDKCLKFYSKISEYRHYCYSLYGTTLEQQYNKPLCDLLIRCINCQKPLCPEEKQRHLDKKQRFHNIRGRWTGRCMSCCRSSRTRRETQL

BI [1] | Kd [1] [µM] | Kd [2] [µM] | BI [2] | Substance | further results
0.33 | 31.8 | > 100 |  | PDZ domain of PPP1R9A (from UniProt Q9ULJ8 504-592) (domain or fragment) | 
0.21 | 60.8 | > 100 |  | PDZ domain of PTPN3 (from UniProt P26045 510-582) (domain or fragment) | 
0.28 | 40.8 | > 100 |  | PDZ domain of LAP2 (from UniProt Q96RT1 1321-1410) (domain or fragment) | 
0.15 | 92.9 | 20.3 | 0.43 | MBP-fused second PDZ domain of MAGI1 (from UniProt Q96QZ7 472-554) (domain or fragment) | 
 | > 100 | 53.8 | 0.23 | PDZ domain 3 of DFNB31 (from UniProt Q9P202 816-899) (domain or fragment) | 
 | > 100 | 64.8 |  | PDZ domain 2 of NHERF2 (from UniProt Q15599 150-230) (domain or fragment) | 
 | > 100 | 22.1 | 0.41 | MBP-fused PDZ domain 1 of NHERF3 (from UniProt Q5T2W1 9-90) (domain or fragment) | 
0.36 | 27.7 | 19.4 | 0.44 | MBP-fused PDZ domain of HTRA1 (from UniProt Q92743 365-467) (domain or fragment) | 
0.22 | 57.2 | > 100 |  | PDZ domain of LIMK2 (from UniProt P53671 152-239) (domain or fragment) | 
0.52 | 13.8 | 22.1 | 0.41 | MBP-fused PDZ domain of SNTG2 (from UniProt Q9NY99 73-156) (domain or fragment) | Kd [3]: 37 µM
0.15 | 92.9 |  |  | MBP-fused PDZ domain 3 of PDZD7 (from UniProt Q9H5P4 862-934) (domain or fragment) | Kd [4]: 6.2 µM
0.54 | 12.6 | 45.4 | 0.26 | MBP-fused PDZ domain of SYNJ2BP (from UniProt P57105 13-100) (domain or fragment) | Kd [3]: 25 µM
0.45 | 18.6 | 57.2 | 0.22 | MBP-fused PDZ domain of SNTB1 (from UniProt Q13884 112-195) (domain or fragment) | Kd [3]: 48 µM
 | > 100 |  | 0.27 | PDZ domain of SHANK3 (from UniProt Q9BYB0 646-740) (domain or fragment) | 
0.23 | 53.8 |  | 0.74 | MBP-fused PDZ domain of MAST2 (from UniProt Q6P0Q8 1104-1192) (domain or fragment) | Kd [4]: 7.02 µM
 | > 100 | 11.1 | 0.57 | MBP-fused PDZ domain of MAST1 (from UniProt Q9Y2H9 967-1055) (domain or fragment) | 
 |  |  |  | HPV16 E6 PBM (from UniProt P03126) | Kd [5]: 7.5 µM
 | > 100 | 7.1 | 0.67 | MBP-fused PDZ domain 2 of GRID2IP (from UniProt A4D2P6 279-356) (domain or fragment) | Kd [4]: 3.96 µM
0.21 | 60.8 | > 100 |  | PDZ domain of SHROOM2 (from UniProt Q13796 26-108) (domain or fragment) | 
 |  | > 100 |  | PDZ domain of GORASP1 (domain or fragment) | 
 | > 100 | 4.2 | 0.77 | MBP-fused PDZ domain of ARHGEF12 (from UniProt Q9NZN5 72-151) (domain or fragment) | Kd [4]: 2.79 µM
0.24 | 50.8 | > 100 |  | PDZ domain 3 of LNX1 (from UniProt Q8TBB1 507-593) (domain or fragment) | 
0.24 | 50.8 | > 100 |  | PDZ domain 1 of GRID2IP (from UniProt A4D2P6 3-84) (domain or fragment) | 
0.45 | 18.6 | 45.4 | 0.26 | MBP-fused PDZ domain 1 of PDZRN3 (from UniProt Q9UPQ7 249-339) (domain or fragment) | 
0.23 | 53.8 | 21.2 | 0.42 | MBP-fused PDZ domain 2 of MAGI2 (from UniProt Q86UL8 426-510) (domain or fragment) | 
0.53 | 13.2 | 35.1 | 0.31 | MBP-fused PDZ domain of SNTA1 (from UniProt Q13424 87-170) (domain or fragment) | 
 |  |  |  | RSK1 683-735 peptide, unphosphorylated (from UniProt Q15418 683-735) | Kd [6]: > 100 µM; Kd [7]: > 100 µM; Kd [8]: 27 µM; Kd [9]: 6.6 µM
0.25 |  | > 100 | 0.11 | PDZ domain 2 of DLG4 (from UniProt P78352 160-246) (domain or fragment) | 
 | > 100 | 40.8 | 0.28 | PDZ domain of ARHGEF11 (from UniProt O15085 47-126) (domain or fragment) | 
 | > 100 | 38.8 | 0.29 | PDZ domain of GRASP (from UniProt Q7Z6J2 101-190) (domain or fragment) | 
